We go through one molecule from article PMC10000386.

Where a chain is given by its changes, count along the chain named. Names and notes keep the numbering of the source.

In the assay the target is T1, Bak ΔBH3, Q16611.
T1 chain: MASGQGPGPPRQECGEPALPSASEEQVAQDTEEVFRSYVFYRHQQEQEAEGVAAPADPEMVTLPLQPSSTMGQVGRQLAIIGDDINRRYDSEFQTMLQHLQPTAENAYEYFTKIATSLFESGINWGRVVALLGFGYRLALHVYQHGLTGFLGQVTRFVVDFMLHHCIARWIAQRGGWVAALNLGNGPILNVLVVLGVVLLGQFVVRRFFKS
As to the kind of experiment: BiFC (flow cytometry). Conditions: chain shown with the change; 6 independent experiments; read off a plot. Background: A flow cytometer gives signals particle by particle.

B1: Bak, Q16611 H164A (protein)
chain: T1 chain with H164A
Regarding B1, the response (Mean Venus/Mean mRFP) came to 0.95.
